{"source": "patent US20220323445A1", "about": "“REDUCING IMMUNOGENICITY TO PEGLOTICASE” (Horizon Therapeutics Ireland DAC, priority 2020, published 2022)", "test_system": "serum uric acid (sUA)", "test": "Serum uric acid (sUA) levels and sUA responders, open-label study of pegloticase with MTX (NCT03635957)", "type": "in vivo, human", "protocol": "The primary objective is to estimate the response rate during Month 6 (Weeks 20, 22, and 24), as measured by the sustained normalization of serum uric acid (SUA) to <6 mg/dL for at least 80% of the time during Month 6 in subjects receiving KXX with MTX.\nThe primary efficacy outcome endpoint is the sustained normalization of SUA to <6 mg/dL for at least 80% of the time during month 6 (weeks 20, 22, and 24) in subjects receiving KXX with MTX. This is slightly below the urate solubility threshold and this threshold has been the accepted standard for nearly all modern gout trials. Participants who achieve this endpoint were classified as “responders.” Serum uric acid (SUA) responders may also be defined as participants achieving and maintaining SUA <6 mg/dL for at least 80% of the time during Month 6 (Weeks 20, 22, and 24).\nBlood samples may be collected prior to each pegloticase infusion for measurement of SUA levels using the Beckman Coulter AU System Uric Acid procedure. Participants were declared “non-responders” if there were SUA measures >6 mg/dL at 2 consecutive study visits beginning with the week 2 visit. […] If the SUA goal is not maintained before or at the 12-week mark, it was assumed that the participant had developed clinically relevant anti-pegloticase antibody and they received no further infusions. This assumption and subsequent discontinuation of pegloticase was consistent with the protocol of large phase III randomized controlled trials and the product label. A formal stopping rule was 2 occasions of SUA levels of greater than 6 mg/dL.\nClinical Chemistry—Blood samples were collected prior to each pegloticase infusion for measurement of SUA levels (primary efficacy parameter) using the Beckman Coulter AU System Uric Acid procedure. In this procedure uric acid is converted to hydrogen peroxide. Hydrogen peroxide reacts with reagent to produce a chromophore which is read bichromatically at 660/800 nm. The amount of dye formed is proportional to the uric acid concentration in the sample.\nSerum samples for measurement of SUA levels were collected at the Screening Visit, the Week −4 Visit (prior to the first dose of MTX), and the Week −2 Visit during the MTX Run-in Period; within 48 hours prior to each pegloticase infusion and after the end of each pegloticase infusion prior to discharge from the site during the Pegloticase+IMM Period; at the non-infusion Week 52/End of Study/Early Termination Visits and at the Post Treatment 3 and 6 Month Follow-up Visits. Additional serum samples for SUA levels were collected at optional non-infusion (Frequent Sampling) Visits at Weeks 1 and 7. […] Subjects with SUA level >6 mg/dL at 2 consecutive visits beginning at Week 2 visit discontinued treatment, completed the End of Pegloticase Infusion Visit procedures within 2 weeks and continued the subject visits according to the protocol (without treatment).\nEfficacy analyses were performed using the modified intention-to-treat (mITT) population, defined as all enrolled subjects who received ≥1 dose of pegloticase. The proportion of Month 6 responders was summarized, along with a 95% confidence interval for the proportion. The proportion of Month 3 and overall (Months 3 and 6 combined) responders was analyzed similarly.\nA subject was declared a non-responder if the subject had SUA level >6 mg/dL at 2 consecutive study visits beginning with the Week 2 Visit. In addition, a subject who withdraws from study treatment for any reason after the first dose of pegloticase in the KXX+MTX Period and prior to Month 6 (for the primary endpoint) or Month 3 (for the secondary endpoint) was considered a non-responder if SUA values were not collected at the planned time points.\nPatients were administered oral MTX (15 mg/week) and folate (1 mg/day) 4 weeks prior to the first pegloticase infusion (Day 1) and throughout the pegloticase treatment period. […]", "key": {"[1]": {"details": "Week 12 - Post-Infusion, mITT, n=10"}, "[2]": {"details": "Week 12 - Pre-Infusion, Month 6 sUA Responders"}, "[3]": {"details": "Week 12 - Pre-Infusion, mITT, n=11"}, "[4]": {"details": "Week 14 - Post-Infusion, Month 6 sUA Responders"}, "[5]": {"details": "Week 14 - Post-Infusion, mITT, n=10"}, "[6]": {"details": "Week 14 - Pre-Infusion, Month 6 sUA Responders"}, "[7]": {"details": "Week 14 - Pre-Infusion, mITT, n=11"}, "[8]": {"details": "Week 16 - Post-Infusion, Month 6 sUA Responders"}, "[9]": {"details": "Week 16 - Post-Infusion, mITT, n=11"}, "[10]": {"details": "Week 16 - Pre-Infusion, Month 6 sUA Responders"}, "[11]": {"details": "Week 16 - Pre-Infusion, mITT, n=11"}, "[12]": {"details": "Week 18 - Post-Infusion, Month 6 sUA Responders"}, "[13]": {"details": "Week 18 - Post-Infusion, mITT, n=11"}}, "data": [{"molecule": "pegloticase (protein, monomethoxy PEG conjugated; Krystexxa Sequence, covalent conjugate of uricase produced by a genetically modified strain of Escherichia coli and monomethoxypoly (ethylene glycol)) TYKKNDEVEFVRTGYGKDMIKVLHIQRDGKYHSIKEVATTVQLTLSSKKDYLHGDNSDVIPTDTIKNTVNVLAKFKGIKSIETFAVTICEHFLSSFKHVIRAQVYVEEVPWKRFEKNGVKHVHAFIYTPTGTHFCEVEQIRNGPPVIHSGIKDLKVLKTTQSGFEGFIKDQFTTLPEVKDRCFATQVYCKWRYHQGRDVDFEATWDTVRSIVLQKFAGPYDKGEYSPSVQKTLYDIQVLTLGQVPEIEDMEISLPNIHYLNIDMSKMGLINKEEVLLPLDNPYGKITGTVKRKLSSRL", "values": [{"measurement": "sUA Change from Baseline, Mean (SD)", "setting": "[1]", "value": "−9.13 (2.911) mg/dL"}, {"measurement": "sUA Change from Baseline, Median", "setting": "[1]", "value": -9.05, "unit": "mg/dL"}, {"measurement": "sUA Observed, Mean (SD)", "setting": "[1]", "value": "0.30 (0.000) mg/dL"}, {"measurement": "sUA Observed, Median", "setting": "[1]", "value": 0.30, "unit": "mg/dL"}, {"measurement": "sUA < 6 mg/dL, %", "setting": "[2]", "value": "(100%)"}, {"measurement": "sUA Change from Baseline, Mean", "setting": "[2]", "value": -8.98, "unit": "mg/dL"}, {"measurement": "sUA Change from Baseline, Median", "setting": "[2]", "value": -8.80, "unit": "mg/dL"}, {"measurement": "sUA Observed, Mean", "setting": "[2]", "value": 0.30, "unit": "mg/dL"}, {"measurement": "sUA Observed, Median", "setting": "[2]", "value": 0.30, "unit": "mg/dL"}, {"measurement": "sUA < 6 mg/dL, n (%)", "setting": "[3]", "value": "11 (100%)"}, {"measurement": "sUA Change from Baseline, Mean (SD)", "setting": "[3]", "value": "−8.98 (2.806) mg/dL"}, {"measurement": "sUA Change from Baseline, Median", "setting": "[3]", "value": -8.80, "unit": "mg/dL"}, {"measurement": "sUA Observed, Mean (SD)", "setting": "[3]", "value": "0.30 (0.015) mg/dL"}, {"measurement": "sUA Observed, Median", "setting": "[3]", "value": 0.30, "unit": "mg/dL"}, {"measurement": "sUA < 6 mg/dL, %", "setting": "[4]", "value": "(100%)"}, {"measurement": "sUA Change from Baseline, Mean", "setting": "[4]", "value": -9.01, "unit": "mg/dL"}, {"measurement": "sUA Change from Baseline, Median", "setting": "[4]", "value": -9.05, "unit": "mg/dL"}, {"measurement": "sUA Observed, Mean", "setting": "[4]", "value": 0.30, "unit": "mg/dL"}, {"measurement": "sUA Observed, Median", "setting": "[4]", "value": 0.30, "unit": "mg/dL"}, {"measurement": "sUA < 6 mg/dL, n (%)", "setting": "[5]", "value": "10 (100%)"}, {"measurement": "sUA Change from Baseline, Mean (SD)", "setting": "[5]", "value": "−9.01 (2.959) mg/dL"}, {"measurement": "sUA Change from Baseline, Median", "setting": "[5]", "value": -9.05, "unit": "mg/dL"}, {"measurement": "sUA Observed, Mean (SD)", "setting": "[5]", "value": "0.30 (0.000) mg/dL"}, {"measurement": "sUA Observed, Median", "setting": "[5]", "value": 0.30, "unit": "mg/dL"}, {"measurement": "sUA < 6 mg/dL, %", "setting": "[6]", "value": "(100%)"}, {"measurement": "sUA Change from Baseline, Mean", "setting": "[6]", "value": -8.97, "unit": "mg/dL"}, {"measurement": "sUA Change from Baseline, Median", "setting": "[6]", "value": -8.80, "unit": "mg/dL"}, {"measurement": "sUA Observed, Mean", "setting": "[6]", "value": 0.30, "unit": "mg/dL"}, {"measurement": "sUA Observed, Median", "setting": "[6]", "value": 0.30, "unit": "mg/dL"}, {"measurement": "sUA < 6 mg/dL, n (%)", "setting": "[7]", "value": "11 (100%)"}, {"measurement": "sUA Change from Baseline, Mean (SD)", "setting": "[7]", "value": "−8.97 (2.810) mg/dL"}, {"measurement": "sUA Change from Baseline, Median", "setting": "[7]", "value": -8.80, "unit": "mg/dL"}, {"measurement": "sUA Observed, Mean (SD)", "setting": "[7]", "value": "0.30 (0.000) mg/dL"}, {"measurement": "sUA Observed, Median", "setting": "[7]", "value": 0.30, "unit": "mg/dL"}, {"measurement": "sUA < 6 mg/dL, %", "setting": "[8]", "value": "(100%)"}, {"measurement": "sUA Change from Baseline, Mean", "setting": "[8]", "value": -8.97, "unit": "mg/dL"}, {"measurement": "sUA Change from Baseline, Median", "setting": "[8]", "value": -8.80, "unit": "mg/dL"}, {"measurement": "sUA Observed, Mean", "setting": "[8]", "value": 0.30, "unit": "mg/dL"}, {"measurement": "sUA Observed, Median", "setting": "[8]", "value": 0.30, "unit": "mg/dL"}, {"measurement": "sUA < 6 mg/dL, n (%)", "setting": "[9]", "value": "11 (100%)"}, {"measurement": "sUA Change from Baseline, Mean (SD)", "setting": "[9]", "value": "−8.97 (2.810) mg/dL"}, {"measurement": "sUA Change from Baseline, Median", "setting": "[9]", "value": -8.80, "unit": "mg/dL"}, {"measurement": "sUA Observed, Mean (SD)", "setting": "[9]", "value": "0.30 (0.000) mg/dL"}, {"measurement": "sUA Observed, Median", "setting": "[9]", "value": 0.30, "unit": "mg/dL"}, {"measurement": "sUA < 6 mg/dL, %", "setting": "[10]", "value": "(100%)"}, {"measurement": "sUA Change from Baseline, Mean", "setting": "[10]", "value": -8.97, "unit": "mg/dL"}, {"measurement": "sUA Change from Baseline, Median", "setting": "[10]", "value": -8.80, "unit": "mg/dL"}, {"measurement": "sUA Observed, Mean", "setting": "[10]", "value": 0.30, "unit": "mg/dL"}, {"measurement": "sUA Observed, Median", "setting": "[10]", "value": 0.30, "unit": "mg/dL"}, {"measurement": "sUA < 6 mg/dL, n (%)", "setting": "[11]", "value": "11 (100%)"}, {"measurement": "sUA Change from Baseline, Mean (SD)", "setting": "[11]", "value": "−8.97 (2.810) mg/dL"}, {"measurement": "sUA Change from Baseline, Median", "setting": "[11]", "value": -8.80, "unit": "mg/dL"}, {"measurement": "sUA Observed, Mean (SD)", "setting": "[11]", "value": "0.30 (0.000) mg/dL"}, {"measurement": "sUA Observed, Median", "setting": "[11]", "value": 0.30, "unit": "mg/dL"}, {"measurement": "sUA < 6 mg/dL, %", "setting": "[12]", "value": "(100%)"}, {"measurement": "sUA Change from Baseline, Mean", "setting": "[12]", "value": -8.97, "unit": "mg/dL"}, {"measurement": "sUA Change from Baseline, Median", "setting": "[12]", "value": -8.80, "unit": "mg/dL"}, {"measurement": "sUA Observed, Mean", "setting": "[12]", "value": 0.30, "unit": "mg/dL"}, {"measurement": "sUA Observed, Median", "setting": "[12]", "value": 0.30, "unit": "mg/dL"}, {"measurement": "sUA < 6 mg/dL, n (%)", "setting": "[13]", "value": "11 (100%)"}, {"measurement": "sUA Change from Baseline, Mean (SD)", "setting": "[13]", "value": "−8.97 (2.810) mg/dL"}, {"measurement": "sUA Change from Baseline, Median", "setting": "[13]", "value": -8.80, "unit": "mg/dL"}, {"measurement": "sUA Observed, Mean (SD)", "setting": "[13]", "value": "0.30 (0.000) mg/dL"}, {"measurement": "sUA Observed, Median", "setting": "[13]", "value": 0.30, "unit": "mg/dL"}, {"measurement": "sUA < 6 mg/dL, %", "setting": "Week 18 - Pre-Infusion, Month 6 sUA Responders", "value": "(100%)"}]}]}
